Results published in patent US11872270B2, “A*03 restricted peptides for use in immunotherapy against cancers and related methods” (Immatics Biotechnologies GmbH, priority 2018, dated 2024).

Biological target: HLA-A*03:01 (Homo sapiens, UniProt P04439)
Assay: MHC binding assay (UV-ligand exchange, β2m ELISA)
Conditions: binding to HLA-A*03:01, UV-ligand exchange, β2m ELISA
Description: Candidate peptides for T cell based therapies according to the present invention were further tested for their MHC binding capacity (affinity). The individual peptide-MHC complexes were produced by UV-ligand exchange, where a UV-sensitive peptide is cleaved upon UV-irradiation and exchanged with the peptide of interest as analyzed. Only peptide candidates that can effectively bind and stabilize the peptide-receptive MHC molecules prevent dissociation of the MHC complexes. To determine the yield of the exchange reaction, an ELISA was performed based on the detection of the light chain (β2m) of stabilized MHC complexes. The assay was performed as generally described in Rodenko et al. (Rodenko et al., 2006) 96 well MAXISorp plates (NUNC) were coated over night with 2 ug/ml streptavidin in PBS at room temperature, washed 4× and blocked for 1 h at 37° C. in 2% BSA containing blocking buffer. Refolded HLA-A*02:01/MLA-001 monomers served as standards, covering the range of 15-500 ng/ml. Peptide-MHC monomers of the UV-exchange reaction were diluted 100-fold in blocking buffer. Samples were incubated for 1 h at 37° C., washed four times, incubated with 2 ug/ml HRP conjugated anti-β2m for 1 h at 37° C., washed again and detected with TMB solution that is stopped with […]. Absorption was measured at 450 nm. Candidate peptides that show a high exchange yield (preferably higher than 50%, most preferred higher than 75%) are generally preferred for a generation and production of antibodies or fragments thereof, and/or T cell receptors or fragments thereof, as they show sufficient avidity to the MHC molecules and prevent dissociation of the MHC complexes.

| Substance | Peptide exchange (MHC class I binding score, peptide exchange yield) |
| --- | --- |
| 79 (AVAAVLLSR; listed as Homo sapiens) [compound 79] | +++ (>50 = +++) |
| 80 (ALCGTQLFY; listed as Homo sapiens) [compound 80] | ++++ (>75% = ++++) |
| 82 (CLANYTVNK; listed as Homo sapiens) [compound 82] | ++++ (>75% = ++++) |
| 83 (KLADSVMAGK; listed as Homo sapiens) [compound 83] | ++++ (>75% = ++++) |
| 84 (QLYSPPSPSYR; listed as Homo sapiens) [compound 84] | ++++ (>75% = ++++) |
| 85 (IMPTFDLTK; listed as Homo sapiens) [compound 85] | + (>10% = +) |
| 86 (RVSGSGGGGAGK; listed as Homo sapiens) [compound 86] | +++ (>50 = +++) |
| 87 (RLASVGLDAK; listed as Homo sapiens) [compound 87] | ++++ (>75% = ++++) |
| 88 (GTHVWVGLYK; listed as Homo sapiens) [compound 88] | ++++ (>75% = ++++) |
| 89 (VIYVICRHK; listed as Homo sapiens) [compound 89] | +++ (>50 = +++) |
| 90 (RTALLWGLKK; listed as Homo sapiens) [compound 90] | ++++ (>75% = ++++) |
| 91 (IMKRQVKCITK; listed as Homo sapiens) [compound 91] | + (>10% = +) |
| 92 (KRIPFRPLAK; listed as Homo sapiens) [compound 92] | ++ (>20% = ++) |
| 93 (SVEGLSRRLK; listed as Homo sapiens) [compound 93] | +++ (>50 = +++) |
| 94 (GMTLLCEALK; listed as Homo sapiens) [compound 94] | ++ (>20% = ++) |
| 95 (FLGLAFHPK; listed as Homo sapiens) [compound 95] | ++ (>20% = ++) |
| 96 (RAVSVNPGK; listed as Homo sapiens) [compound 96] | + (>10% = +) |
| 97 (RVRALGSQY; listed as Homo sapiens) [compound 97] | ++++ (>75% = ++++) |
| 98 (VSVAGSILAK; listed as Homo sapiens) [compound 98] | ++ (>20% = ++) |
| 99 (RTYTCQVTY; listed as Homo sapiens) [compound 99] | ++++ (>75% = ++++) |
| 100 (TTNARILAR; listed as Homo sapiens) [compound 100] | +++ (>50 = +++) |

| Substance | Peptide exchange (MHC class I binding score, peptide exchange yield) |
| --- | --- |
| 101 (HMDEFKRTQK; listed as Homo sapiens) [compound 101] | +++ (>50 = +++) |
| 102 (RLLQHTPSAR; listed as Homo sapiens) [compound 102] | ++++ (>75% = ++++) |
| 103 (SIYKKAVYR; listed as Homo sapiens) [compound 103] | ++++ (>75% = ++++) |
| 104 (AVVQGLVEK; listed as Homo sapiens) [compound 104] | ++ (>20% = ++) |
| 105 (QVLDLQSVK; listed as Homo sapiens) [compound 105] | ++ (>20% = ++) |
| 106 (LLRSGLTLR; listed as Homo sapiens) [compound 106] | ++ (>20% = ++) |
| 107 (ILNLNKMVK; listed as Homo sapiens) [compound 107] | +++ (>50 = +++) |
| 109 (KLQNLPTLLY; listed as Homo sapiens) [compound 109] | +++ (>50 = +++) |
| 110 (IIFIPATILLK; listed as Homo sapiens) [compound 110] | ++++ (>75% = ++++) |
| 111 (ATSPPASVR; listed as Homo sapiens) [compound 111] | ++++ (>75% = ++++) |
| 112 (ASLAAAVLAK; listed as Homo sapiens) [compound 112] | +++ (>50 = +++) |
| 113 (VSIRNTLLY; listed as Homo sapiens) [compound 113] | + (>10% = +) |
| 114 (SLLTVSGAWAK; listed as Homo sapiens) [compound 114] | ++++ (>75% = ++++) |
| 115 (AILHPFRAK; listed as Homo sapiens) [compound 115] | +++ (>50 = +++) |
| 117 (TVFVELWLK; listed as Homo sapiens) [compound 117] | ++ (>20% = ++) |
| 118 (SLRGSFPILY; listed as Homo sapiens) [compound 118] | + (>10% = +) |
| 119 (RMGFRTLSK; listed as Homo sapiens) [compound 119] | ++++ (>75% = ++++) |
| 120 (TRMQKAGFLYY; listed as Homo sapiens) [compound 120] | ++ (>20% = ++) |
| 122 (LIGPLLICK; listed as Homo sapiens) [compound 122] | ++++ (>75% = ++++) |
| 124 (VVYDTMIEK; listed as Homo sapiens) [compound 124] | +++ (>50 = +++) |
| 125 (VVYDTMIEKF; listed as Homo sapiens) [compound 125] | ++++ (>75% = ++++) |

| Substance | Peptide exchange (MHC class I binding score, peptide exchange yield) |
| --- | --- |
| 127 (GLAAGALLLY; listed as Homo sapiens) [compound 127] | ++ (>20% = ++) |
| 128 (KIKKPLSYR; listed as Homo sapiens) [compound 128] | ++++ (>75% = ++++) |
| 129 (ALARVSSVKL; listed as Homo sapiens) [compound 129] | +++ (>50 = +++) |
| 131 (RVDSKQRYY; listed as Homo sapiens) [compound 131] | ++++ (>75% = ++++) |
| 132 (ASSFRPLLSK; listed as Homo sapiens) [compound 132] | +++ (>50 = +++) |
| 134 (SLLKPSGDYFK; listed as Homo sapiens) [compound 134] | +++ (>50 = +++) |
| 136 (ALSRMSQQY; listed as Homo sapiens) [compound 136] | ++++ (>75% = ++++) |
| 137 (TVYVAMCHKF; listed as Homo sapiens) [compound 137] | ++++ (>75% = ++++) |
| 138 (VSLSKMLKK; listed as Homo sapiens) [compound 138] | +++ (>50 = +++) |
| 141 (RLRDYISSLK; listed as Homo sapiens) [compound 141] | ++++ (>75% = ++++) |
| 142 (SPRVYWLGLNDR; listed as Homo sapiens) [compound 142] | + (>10% = +) |
| 143 (KTLGKIAEK; listed as Homo sapiens) [compound 143] | ++++ (>75% = ++++) |
| 144 (PLAMLAATCNK; listed as Homo sapiens) [compound 144] | ++ (>20% = ++) |
| 145 (SLFEGIYTIK; listed as Homo sapiens) [compound 145] | ++++ (>75% = ++++) |
| 146 (TLLSYELAFK; listed as Homo sapiens) [compound 146] | ++++ (>75% = ++++) |
| 147 (KLFMPRPK; listed as Homo sapiens) [compound 147] | +++ (>50 = +++) |
| 148 (RIGNKGIYK; listed as Homo sapiens) [compound 148] | +++ (>50 = +++) |
| 149 (TVFLSKYLKK; listed as Homo sapiens) [compound 149] | +++ (>50 = +++) |
| 150 (LLLAAVTVK; listed as Homo sapiens) [compound 150] | ++ (>20% = ++) |
| 151 (KVASFTVIGY; listed as Homo sapiens) [compound 151] | +++ (>50 = +++) |
| 152 (KIICGVHYLY; listed as Homo sapiens) [compound 152] | + (>10% = +) |
